Source: the supplement of paper PMC7877785
± gives the uncertainty stated by the source.

Test: self-splicing fitness, log relative to wild type (ln ratio); higher = more splicing; Tetrahymena group I intron in knt gene, E. coli kanamycin selection, DiMSum; sequences stand for … in CUCUCU…GGAGGGAAAAGUUAUCAGGCAUGCACCUGGUAGCUAGUCUUUAAACCAAUAGAUUGCAUCGGUUUAAAAGGCAAGACCGUCAAAUUGCGGGAAAGGGGUCAACAGCCGUUCAGUACCAAGUCUCAGGGGAAACUUUGAGAUGGCCUUGCAAAGGGUAUGGUAAUAAGCUGACGGACAUGGUCCUAACCACGCAGCCAAGUCCUAAGUCAACAGAUCUUCUGUUGAUAUGGAUGCAGUUCACAGACUAAAUGUCGGUCGGGGAAGAUGUAUUCUUCUCAUAAGAUAUAGUCGGACCUCUCCUUAAUGGGAGCUAGCGGAUGAAGUGAUGCAACACUGGAGCCGCUGGGAACUAAUUUGUAUGCGAAAGUAUAUUGAUUAGUUUUGGAGUACUCGUGGUCG
How it was run: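 The eight P1ex-region nucleotides of an intron in the knt kanamycin-resistance gene on pET-22b(+) were all randomised and the library put into E. coli BL21(DE3). Six replicate transformations were grown overnight at 37°C or 30°C on LB agar with or without 25 μg/mL kanamycin, together with 100 μg/mL carbenicillin, 50 μM IPTG and 0.2% rhamnose. Colonies were pooled and amplicon-sequenced on an Illumina HiSeq 2500. Fitness from DiMSum is the error-weighted combination of wild-type-normalised replicate fold changes, kanamycin over none.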

GAGCAGCAAUAUUACGUACU
self-splicing fitness (ln) (30 °C): -0.0719 ± 0.068 | self-splicing fitness (ln) (37 °C): -0.502 ± 0.085

CAUAAGCAAUAUUACGCCAG
self-splicing fitness (ln) (30 °C): -1.42 ± 0.14 | self-splicing fitness (ln) (37 °C): -0.932 ± 0.19

GCCAAGCAAUAUUACGGGUC
self-splicing fitness (ln) (30 °C): -3.34 ± 0.18 | self-splicing fitness (ln) (37 °C): -2.8 ± 0.27

AUCUAGCAAUAUUACGAUGG
self-splicing fitness (ln) (30 °C): -3.59 ± 0.2 | self-splicing fitness (ln) (37 °C): -1.75 ± 0.19

GCCAAGCAAUAUUACGGACA
self-splicing fitness (ln) (30 °C): -1.12 ± 0.11 | self-splicing fitness (ln) (37 °C): 0.31 ± 0.093

UCCGAGCAAUAUUACGAUCA
self-splicing fitness (ln) (37 °C): -1.26 ± 0.25

AUGGAGCAAUAUUACGUUCG
self-splicing fitness (ln) (30 °C): -1.89 ± 0.14 | self-splicing fitness (ln) (37 °C): -0.826 ± 0.19

UGACAGCAAUAUUACGCAGA
self-splicing fitness (ln) (30 °C): -1.96 ± 0.15 | self-splicing fitness (ln) (37 °C): -1.11 ± 0.13

UCUAAGCAAUAUUACGAUUU
self-splicing fitness (ln) (30 °C): -2.92 ± 0.24 | self-splicing fitness (ln) (37 °C): -1.37 ± 0.16

AUCAAGCAAUAUUACGUCGU
self-splicing fitness (ln) (30 °C): -1.5 ± 0.052 | self-splicing fitness (ln) (37 °C): -0.574 ± 0.071

UAGAAGCAAUAUUACGCGGA
self-splicing fitness (ln) (30 °C): -1.64 ± 0.13 | self-splicing fitness (ln) (37 °C): -0.655 ± 0.11

GGCGAGCAAUAUUACGUAUC
self-splicing fitness (ln) (30 °C): -1.61 ± 0.14 | self-splicing fitness (ln) (37 °C): -0.00113 ± 0.13

CUGCAGCAAUAUUACGGUCC
self-splicing fitness (ln) (30 °C): -3.4 ± 0.23 | self-splicing fitness (ln) (37 °C): -2.99 ± 0.37

UUUGAGCAAUAUUACGCUUA
self-splicing fitness (ln) (30 °C): -3.38 ± 0.36 | self-splicing fitness (ln) (37 °C): -2.07 ± 0.23

CUGCAGCAAUAUUACGAUCU
self-splicing fitness (ln) (30 °C): -4.3 ± 0.43 | self-splicing fitness (ln) (37 °C): -2.46 ± 0.27

GUCUAGCAAUAUUACGUUCU
self-splicing fitness (ln) (30 °C): -0.494 ± 0.098 | self-splicing fitness (ln) (37 °C): -0.247 ± 0.11

UCUCAGCAAUAUUACGCCGU
self-splicing fitness (ln) (30 °C): -2.55 ± 0.25 | self-splicing fitness (ln) (37 °C): -1.56 ± 0.22

AAGAAGCAAUAUUACGACGU
self-splicing fitness (ln) (30 °C): -0.168 ± 0.068 | self-splicing fitness (ln) (37 °C): 0.298 ± 0.1

CUUUAGCAAUAUUACGAUGU
self-splicing fitness (ln) (30 °C): -3.36 ± 0.28 | self-splicing fitness (ln) (37 °C): -2.36 ± 0.24

ACCCAGCAAUAUUACGCCGU
self-splicing fitness (ln) (30 °C): -1.37 ± 0.064 | self-splicing fitness (ln) (37 °C): -0.415 ± 0.081

UCUAAGCAAUAUUACGUGGG
self-splicing fitness (ln) (30 °C): -3.09 ± 0.19 | self-splicing fitness (ln) (37 °C): -1.92 ± 0.2

CUACAGCAAUAUUACGACUC
self-splicing fitness (ln) (30 °C): -4.35 ± 0.22 | self-splicing fitness (ln) (37 °C): -2.7 ± 0.24

CCAAAGCAAUAUUACGCCGG
self-splicing fitness (ln) (30 °C): -5.01 ± 0.41 | self-splicing fitness (ln) (37 °C): -2.38 ± 0.2

AGUUAGCAAUAUUACGGUAC
self-splicing fitness (ln) (30 °C): -1.49 ± 0.2 | self-splicing fitness (ln) (37 °C): -2.76 ± 0.28

CGGGAGCAAUAUUACGUAGC
self-splicing fitness (ln) (30 °C): -2.26 ± 0.32 | self-splicing fitness (ln) (37 °C): -1.05 ± 0.22

AGAGAGCAAUAUUACGUGGG
self-splicing fitness (ln) (30 °C): -3.01 ± 0.17 | self-splicing fitness (ln) (37 °C): -2.71 ± 0.28

UGGUAGCAAUAUUACGAGAU
self-splicing fitness (ln) (37 °C): -1.76 ± 0.43

AGCCAGCAAUAUUACGAGGA
self-splicing fitness (ln) (30 °C): -3.35 ± 0.34 | self-splicing fitness (ln) (37 °C): -2.17 ± 0.27

CUAGAGCAAUAUUACGCGGG
self-splicing fitness (ln) (30 °C): -2.91 ± 0.22 | self-splicing fitness (ln) (37 °C): 0.316 ± 0.14

GUACAGCAAUAUUACGACGA
self-splicing fitness (ln) (30 °C): -1.54 ± 0.14 | self-splicing fitness (ln) (37 °C): -1.07 ± 0.12

UACAAGCAAUAUUACGGGAA
self-splicing fitness (ln) (30 °C): -2.41 ± 0.12 | self-splicing fitness (ln) (37 °C): -1.6 ± 0.097

UGAGAGCAAUAUUACGCCUA
self-splicing fitness (ln) (30 °C): -1.58 ± 0.22 | self-splicing fitness (ln) (37 °C): -0.073 ± 0.21

AUAUAGCAAUAUUACGCACC
self-splicing fitness (ln) (30 °C): -0.862 ± 0.2 | self-splicing fitness (ln) (37 °C): -0.94 ± 0.18

UAUCAGCAAUAUUACGCCAC
self-splicing fitness (ln) (30 °C): -3.63 ± 0.48

CUAAAGCAAUAUUACGGUGA
self-splicing fitness (ln) (30 °C): -4.11 ± 0.2 | self-splicing fitness (ln) (37 °C): -1.6 ± 0.14

CCGUAGCAAUAUUACGCGCG
self-splicing fitness (ln) (30 °C): -2.15 ± 0.17 | self-splicing fitness (ln) (37 °C): -0.999 ± 0.18

ACAGAGCAAUAUUACGUCAA
self-splicing fitness (ln) (30 °C): -2.04 ± 0.21 | self-splicing fitness (ln) (37 °C): -3.16 ± 0.3

GGGGAGCAAUAUUACGCUCA
self-splicing fitness (ln) (30 °C): -1.05 ± 0.15 | self-splicing fitness (ln) (37 °C): -0.61 ± 0.21
